Reference: article PMC8256705, “Putative hexameric glycosyltransferase functional unit revealed by the crystal structure of Acinetobacter baumannii MurG” (IUCrJ, 2021)

Experiments:
[1] = biological target: the molecule itself; experiment: SEC-MALS; dimer-sized SEC peak; Superdex 200 10/300, 20 mM Tris-HCl pH 8.0, 150 mM NaCl, 0.4 ml/min, 25°C
[2] = biological target: the molecule itself; experiment: SEC-MALS; highly oligomeric SEC peak; Superdex 200 10/300, 20 mM Tris-HCl pH 8.0, 150 mM NaCl, 0.4 ml/min, 25°C

B1: MurG from Acinetobacter baumannii (abMurG), full length, wild type (enzyme, UniProt A3M9Y1 1-365, looked up)
chain: MTDSQQSKPKHVMMMAAGTGGHVFPALAVAKQLQQQGCQVSWLATPTGMENRLLKDQNIPIYQIDIQGVRGNGVIRKLAAPFKILKATFSAMRYMKQLKVDAVAGFGGYVAGPGGLAARLLGIPVLIHEQNAVAGFTNAQLSRVAKVVCEAFPNTFPASEKVVTTGNPVRREITDILSPKWRYDEREQADKPLNILIVGGSLGAKALNERLPPALKQLEVPLNIFHQCGQQQVEATQALYADAPANLTIQVLPFIEDMAKAYSEADLIICRAGALTVTEVATAGVAAVFVPLPIAVDDHQTANAKFLADIGAAKICQQSTMTPEVLNQLFTTLMNRQLLTEMAVKARQHAQPNATQHVVDLIQKM
notes: MurG glycosyltransferase of Acinetobacter baumannii, full length, amino acids Met1-Met365 (365 amino acids); Theoretical mass with the C-terminal His tag is printed as 39.4 kDa; Found as a dimer and as a hexamer in solution; only the large-size SEC peak crystallized; also called wild-type abMurG; source: E. coli BL21 (DE3), purified (nickel-nitrilotriacetic acid resin, SEC); not shown: His tag, …
B1 was tested, and the “stoichiometry N” value [1] was 2 and the “stoichiometry N” value [2] was 6.
